# From patent US8067220B2, “Alternative crystal form of monoacylglycerol lipase (MGLL)” (Janssen Pharmaceutica N.V., priority 2008, dated 2011)
# Where a chain is given by its changes, count along the chain named. Names and notes keep the numbering of the source.
# B1: mut-MGLL 1-303, L169S, L176S, K36A: human MGLL 1-303 with cap mutations L169S, L176S and surface mutation K36A (protein)
# chain: GMPEESSPRRTPQSIPYQDLPHLVNADGQYLFCRYWAPTGTPKALIFVSHGAGEHSGRYEELARMLMGLDLLVFAHDHVGHGQSEGERMVVSDFHVFVRDVLQHVDSMQKDYPGLPVFLLGHSMGGAIAILTAAERPGHFAGMVLISPLVLANPESATTFKVLAAKVLNSVLPNLSSGPIDSSVLSRNKTEVDIYNSDPLICRAGLKVCFGIQLLNAVSRVERALPKLTVPFLLLQGSADRLCDSKGAYLLMELAKSQDKTLKIYEGAYHVLHKELPEVTNSVFHEINMWVSQRTATAGTASPP
# B2: mut-MGLL 1-303, L171Q: human MGLL 1-303 with cap-domain mutation L171Q (protein, UniProt Q99685 1-303, looked up, variant L171Q)
# Monoglyceride lipase: MPEESSPRRTPQSIPYQDLPHLVNADGQYLFCRYWKPTGTPKALIFVSHGAGEHSGRYEELARMLMGLDLLVFAHDHVGHGQSEGERMVVSDFHVFVRDVLQHVDSMQKDYPGLPVFLLGHSMGGAIAILTAAERPGHFAGMVLISPLVLANPESATTFKVLAAKVLNLVQPNLSLGPIDSSVLSRNKTEVDIYNSDPLICRAGLKVCFGIQLLNAVSRVERALPKLTVPFLLLQGSADRLCDSKGAYLLMELAKSQDKTLKIYEGAYHVLHKELPEVTNSVFHEINMWVSQRTATAGTASPP
# B3: mut-MGLL 1-303, L169S, L176S, K36A, K226A: human MGLL 1-303 with L169S, L176S and surface mutations K36A, K226A (protein)
# chain: B2 Monoglyceride lipase with K36A, L169S, Q171L, L176S, K226A
# B4: mut-MGLL 1-303, L167Q, L171Q: human MGLL 1-303 with cap-domain mutations L167Q, L171Q (protein, UniProt Q99685 1-303, looked up, variant L167Q L171Q)
# Monoglyceride lipase: B2 Monoglyceride lipase with L167Q
# B5: mut-MGLL. 1-303, L167Q, L174Q: human MGLL 1-303 with cap-domain mutations L167Q, L174Q (protein, UniProt Q99685 1-303, looked up, variant L167Q L174Q)
# Monoglyceride lipase: B2 Monoglyceride lipase with L167Q, Q171L, L174Q
# B6: mut-MGLL.1-303, L169S, L176S, K160A: human MGLL 1-303 with L169S, L176S and surface mutation K160A (protein)
# chain: B2 Monoglyceride lipase with K160A, L169S, Q171L, L176S
# B7: mut-MGLL 1-303, L169S, L176S, K226A: human MGLL 1-303 with L169S, L176S and surface mutation K226A (protein)
# chain: B2 Monoglyceride lipase with L169S, Q171L, L176S, K226A
# B8: mut-MGLL 1-303, L171Q, L174Q: human MGLL 1-303 with cap-domain mutations L171Q, L174Q (protein, UniProt Q99685 1-303, looked up, variant L171Q L174Q)
# Monoglyceride lipase: B2 Monoglyceride lipase with L174Q
# B9: mut-MGLL.1-303, L169S, L176S, K165A: human MGLL 1-303 with L169S, L176S and surface mutation K165A (protein)
# chain: B2 Monoglyceride lipase with K165A, L169S, Q171L, L176S
# B10: mut-MGLL 9-297, L169S, L176S: truncated human MGLL 9-297 with L169S, L176S (protein, UniProt Q99685 9-297, looked up, variant L169S L176S)
# chain: RTPQSIPYQDLPHLVNADGQYLFCRYWKPTGTPKALIFVSHGAGEHSGRYEELARMLMGLDLLVFAHDHVGHGQSEGERMVVSDFHVFVRDVLQHVDSMQKDYPGLPVFLLGHSMGGAIAILTAAERPGHFAGMVLISPLVLANPESATTFKVLAAKVLNSVLPNLSSGPIDSSVLSRNKTEVDIYNSDPLICRAGLKVCFGIQLLNAVSRVERALPKLTVPFLLLQGSADRLCDSKGAYLLMELAKSQDKTLKIYEGAYHVLHKELPEVTNSVFHEINMWVSQRTATA
# B11: mut-MGLL 9-303, L169S, L176S: N-terminally truncated human MGLL 9-303 with L169S, L176S (protein, UniProt Q99685 9-303, looked up, variant L169S L176S)
# chain: RTPQSIPYQDLPHLVNADGQYLFCRYWKPTGTPKALIFVSHGAGEHSGRYEELARMLMGLDLLVFAHDHVGHGQSEGERMVVSDFHVFVRDVLQHVDSMQKDYPGLPVFLLGHSMGGAIAILTAAERPGHFAGMVLISPLVLANPESATTFKVLAAKVLNSVLPNLSSGPIDSSVLSRNKTEVDIYNSDPLICRAGLKVCFGIQLLNAVSRVERALPKLTVPFLLLQGSADRLCDSKGAYLLMELAKSQDKTLKIYEGAYHVLHKELPEVTNSVFHEINMWVSQRTATAGTASPP
# System: MGLL
# Test: Michaelis-Menten kinetics, hydrolysis of 4-methylcoumarin butyrate (4MC-B)
# Type: biochemical, human
# Conditions: substrate 4MC-B; 4-5 nM MGLL, 20 mM Pipes pH 7, 150 mM NaCl, 37° C.; average of 2 or 4 assays
# From the text: A small fluorescent substrate, 4-methyl coumarin butyrate (4MC-B) was used to compare the activity of the engineered mutants to the activity of wt-MGLL (hMGLL 1-303) (SEQ ID NO: 3). The catalytic efficiency (kcat/KM) for the hydrolysis of the 4MC-B was similar for wt-MGLL (hMGLL 1-303) (SEQ ID NO: 3) and all MGLL mutants tested (Table 2). A larger more aliphatic fluorescent substrate, Coumarin Arachidonate (C-A), structurally more closely related to the MGLL natural substrate, 2-AG, was used to compare the activity of wt-MGLL (hMGLL 1-303) (SEQ ID NO: 3) to TEV protease cleaved mut-MGLL (hMGLL 1-303 L169S, L176S) (SEQ ID NO: 5).
# The Michaelis-Menten parameters for the hydrolysis of 4-methylcoumarin butyrate (4MC-B) and coumarin arachidonate (C-A) substrate were determined using 4-5 nM of MGLL in 20 mM Pipes pH 7 and 150 mM NaCl at 37° C. The change in fluorescence due to substrate hydrolysis was monitored using excitation/emission wavelengths of 335/440 in a Safire II instrument from Tecan. The hyperbolic rates versus substrate concentration curves for the hydrolysis of 4MC-B were fit to the Michaelis-Menten equation using Excel.
Molecule,Kcat,Km
B1,0.85 s⁻¹,124 µM
B2,0.85 s⁻¹,105 µM
B3,0.5 s⁻¹,123 µM
B4,0.983 s⁻¹,84 µM
B5,1.17 s⁻¹,84 µM
B6,0.5 s⁻¹,90 µM
B7,0.633 s⁻¹,110 µM
B8,0.783 s⁻¹,89 µM
B9,0.45 s⁻¹,137 µM
B10,0.433 s⁻¹,126 µM
B11,0.45 s⁻¹,88 µM
